Experimental data: IntAct's records for PubMed 12163175

B1: Protein ROG3 (Saccharomyces cerevisiae), P43602 (parent)
chain: MGFSSGKSTKKKPLLFDIRLKNVDNDVILLKGPPNEAPSVLLSGCIVLSINEPMQIKSISLRLYGKIQIDVPLERPQDASSSSLSSSPPKIRKYNKVFYNYAWDNVNLKEYLSGLRGQSGLAGSSSSSNILGTRQRAQSTSSLKSLKGSSSPSSCTLDKGNYDFPFSAILPGSLPESVESLPNCFVTYSMESVIERSKNYSDLICRKNIRVLRTISPAAVELSETVCVDNSWPDKVDYSISVPNKAVAIGSATPINISIVPLSKGLKLGSIKVVLFENYQYCDPFPPVISENRQVTELNLEDPLNESSGEFNGNGCFVNNPFFQPDHSFQDKWEIDTILQIPNSLSNCVQDCDVRSNIKVRHKLKFFIILINPDGHKSELRASLPIQLFISPFVALSIKPLSSSNLYSLFSTTNQKDENSSQEEEEEYLFSRSASVTGLELLADMRSGGSVPTISDLMTPPNYEMHVYDRLYSGSFTRTAVETSGTCTPLGSECSTVEDQQQDLEDLRIRLTKIRNQRDNLGLPPSASSAAASRSLSPLLNVPAPEDGTERILPQSALGPNSGSVPGVHSNVSPVLLSRSPAPSVSAHEVLPVPSGLNYPETQNLNKVPSYGKAMKYDIIGEDLPPSYPCAIQNVQPRKPSRVHSRNSSTTLSSSIPTSFHSSSFMSSTASPISIINGSRSSSSGVSLNTLNELTSKTSNNPSSNSMKRSPTRRRATSLAGFMGGFLSKGNKR
B2: Protein ROD1 (Saccharomyces cerevisiae), Q02805 (parent)
chain: MFSSSSRPSKEPLLFDIRLRNLDNDVLLIKGPPDEASSVLLSGTIVLSITEPIQIKSLALRLFGRLRLNIPTVLQTVHGPHKRYSKFERNIYSHFWDDFNIKSYFQNLYDNHNNGKITISSKSSTNLAALPKRKRALSTASLISSNGQTSASKNYHTLVKGNYEFPFSAIIPGSLVESVEGLPNAAVTYALEATIERPKQPDLICKKHLRVIRTLAIDAVELSETVSVDNSWPEKVDYTISIPTKAIAIGSSTMINILIVPILKGLKLGPVRISLVENSQYCGSYGGVINQERMVAKLKLKDPLKHVAQIKKKRSLNEAADEGVDTDTGEFQDKWEVRALLNIPASLTKCSQDCRILSNIKVRHKIKFTISLLNPDGHISELRAALPVQLFISPFVPVNVKTSDVIERTLKTFGPSYQVTSQHDNSFSSKNFVDDSEEDVIFQRSASALQLSSMPTIVSGSTLNINSTDAEATAVADTTMVTSLMVPPNYGNHVYDRVYGEVTNEDETSASASSSAVESQAIHNIQNLYISDSNNSNNPILAPNPQIKIEDDSLNNCDSRGDSVNNSNLNLVNSNLTISENWNNNSPSANRYNNIINAGLNSPSLTPSFAHLSRRNSYSRQTSSTSLKNDLELTDLSRVPSYDKAMKSDMIGEDLPPAYPEEELGVQENKKIELERPQILHHKSTSSLLPLPGSSKSSNNLKRSSSRTHLSHSPLPRNNSGSSVSLQQLARNNTDSSFNLNLSFTSAKSSTGSRHFPFNMTTSFTSNSSSKNNSHFDKTDSTSDANKPREEENYTSATHNRRSRSSSVRSNNSNSPLRQGTGSFANLMEMFTKRDRS

Variants of: B1
Details: with rsp5_yeast RSP5, P39940
Target sequence in this assay (P39940 whole entry): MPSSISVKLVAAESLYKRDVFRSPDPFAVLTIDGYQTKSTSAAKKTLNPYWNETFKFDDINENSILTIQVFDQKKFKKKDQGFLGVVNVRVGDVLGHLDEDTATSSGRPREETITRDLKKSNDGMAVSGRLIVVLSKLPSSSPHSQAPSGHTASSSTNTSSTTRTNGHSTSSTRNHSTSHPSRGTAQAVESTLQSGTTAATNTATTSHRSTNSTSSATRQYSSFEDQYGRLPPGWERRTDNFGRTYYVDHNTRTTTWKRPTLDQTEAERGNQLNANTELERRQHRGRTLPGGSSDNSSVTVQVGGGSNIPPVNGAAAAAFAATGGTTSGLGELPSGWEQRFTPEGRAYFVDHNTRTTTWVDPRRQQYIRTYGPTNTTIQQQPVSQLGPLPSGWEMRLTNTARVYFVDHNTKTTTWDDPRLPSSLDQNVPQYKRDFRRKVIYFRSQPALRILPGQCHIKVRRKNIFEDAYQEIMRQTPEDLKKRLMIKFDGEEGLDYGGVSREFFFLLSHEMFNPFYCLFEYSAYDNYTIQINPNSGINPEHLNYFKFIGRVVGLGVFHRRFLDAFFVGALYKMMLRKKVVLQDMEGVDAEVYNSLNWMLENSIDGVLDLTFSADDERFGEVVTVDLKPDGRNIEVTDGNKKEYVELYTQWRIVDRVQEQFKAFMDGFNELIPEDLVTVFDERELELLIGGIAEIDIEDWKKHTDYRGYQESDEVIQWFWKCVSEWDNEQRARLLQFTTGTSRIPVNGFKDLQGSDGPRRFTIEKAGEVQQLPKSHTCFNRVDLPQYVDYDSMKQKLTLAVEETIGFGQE

Variant	effect of a mutation on the interaction
C487Q;T488A	disrupting interaction

Variants of: B2
Details: with rsp5_yeast RSP5, P39940
Target sequence in this assay (P39940 whole entry): as above

Variant	effect of a mutation on the interaction
P487Q;P488A	disrupting interaction
